The values that follow come from US20230287369A1, “A NEW, NON-SPECIFIC THERMOLABILE NUCLEASE ACTIVE AT LOW TEMPERATURE, IN WIDE PH RANGE AND HIGH CONCENTRATION IN SALTS” (Blirt S.A., priority 2019, published 2023).

Type in all cases: biochemical
For data set [1], the system named is herring sperm genomic DNA. The data set is described as follows: Nucleolytic (specific) activity of PPR nuclease, modified Kunitz's test: effect of pH, temperature and Mg2+. On the procedure: FIG. 2—showing pH influence on PPR nucleolytic activity depending on NaCl salt concentration. Measurement using modificated Kunitz's test, conditions: 20 mM MgCh, temperature of 22° C.
FIG. 3—showing temperature and high salts (500 mM NaCl+100 mM MgCL) influence on PPR nucleolytic activity. Measurement using modificated Kunitz's test.
FIG. 4—showing influence of Mg^2, ions on PPR nucleolytic activity in selected pH and temperature conditions. Maximum PPR activity is obtained at 50-150 mM concentration at 37° C. in a pH 8.0 buffer.
(§1) In order to determine PPR nuclease specific activity serial dilutions of the enzyme are incubated in a reaction buffer containing 20 mM Tris-HCl (pH 8.0), 20 mM MgCh and 100 pg of herring sperm genomic DNA of 300 m ? volume at 37° C. for 30 min. The reaction is stopped by adding 300 m ? 4% solution of perchloric acid to 2% final concentration and sample incubation on ice for 60 min. As a control, 100 pg DNA is incubated without the addition of nuclease. Afterwards, the samples are centrifuged for 10 minutes until separation of the precipitate of non-degraded DNA. The content of free nucleotides and oligonucleotide fragments smaller than 10 bp is determined in supernatant by measuring absorbance at 260 nm wavelength. 1 U nuclease activity is determined as enzyme quantity causing increase of absorbance in the studied sample at 260 nm wavelength of 1.0 within 30 minutes of reaction at 37° C.
In order to determine optimal pH for enzyme nucleolytic activity reaction is conducted as described in Example 4. The solutions of pH 6.0-10.0 with 1 U enzyme in reaction mixtures containing 0, 250, 500 mM NaCl, respectively.
The determination of the optimal temperature for enzyme nucleolytic activity reaction is performed as described in Example 4 at various temperatures from 6° C. to 45° C. with 1 U enzyme in the reaction mixture containing 50 mM Tris, pH 8.0 and variable concentrations of MgCh (5 mM and 100 mM). […] It needs to be highlighted that in these conditions 100% of standard activity may be obtained in refrigerated conditions at 6° C., by applying the relevant salt concentration: NaCl (500 mM) and MgCh (100 mM).
To determine the effects of Mg^2+ ion concentration on PPR nucleolytic activity reaction is performed as described in Example 4 in solutions of varied content of Mg^2+ ions; 5 mM to 200 mM with 1 U enzyme in the reaction mixture. […] In all observed ranges of MgCh (5-200 mM) PPR concentrations show high specific activity.

Data set [2] concerns pUC19 plasmid DNA. Put plainly: Effects of potential inhibitors (salts, urea, imidazole) on PPR nucleolytic activity. On the procedure:
(§2) In order to determine PPR nuclease nucleolytic activity serial dilutions of the enzyme are incubated in a reaction buffer containing 20 mM Tris-HCl (pH 8.0), 20 mM MgCb and 1 pg pUC19 plasmid DNA of 20 m ? volume for 10 min. The reaction is stopped by adding 5 m ? 25 mM DTT solution to a final concentration of 5 mM and the sample is heated to 55° C. for 10 min. As a control, 1 pg of pUC19 plasmid DNA is incubated without the addition of nuclease. Subsequently, the samples are loaded onto a 1% agarose gel and DNA separation is performed in gel at 130 voltage for 40 min. The remaining, nondegraded DNA in gel is stained with ethidium bromide and documented by taking a photography of the gel. 1 U activity is determined as the enzyme quantity essential for total degradation of 1 pg of pUC19 plasmid DNA in 10 min. at 37° C.
as §1
To determine the scope of enzyme tolerance to popular ion components used in the preparation of recombinant proteins, present in the reaction buffer, a nucleolytic reaction is performed as described in Example 4 in solutions of various amounts of individual potential inhibitors: NaCl, urea, ammonium sulphate, imidazole. The PPR nuclease retains high nucleolytic activity in the presence of increased concentrations of tested substances, as shown in Table 1.

The subject of data set [3] is pUC19 plasmid DNA. The data set is described as follows: Thermal inactivation of PPR enzymatic activity in the presence of DTT, plasmid DNA degradation on agarose gel. The note with it: incubation for 15 minutes in the presence of 1-5 mM DTT. As for the experimental part:
FIG. 5—showing PPR inactivation in various temperature conditions in the presence of 5 mM DTT. Complete PPR inactivation is obtained at 52° C.
as §2
To determine the parameters of PPR nuclease inactivation series of 0.2 ml test probes for PCR are prepared containing 100 U PPR in a 50 m ? reaction buffer containing 5 mM DTT, as described in Example 4A, excluding pUCIO plasmid DNA. Afterwards, the probes are incubated for 15 minutes at relevant temperatures and then for 5 minutes on ice. […] The degree of plasmid DNA degradation in the trials is analyzed on an agarose gel.

The subject of data set [4] is herring sperm genomic DNA. The data set is described as follows: Nucleolytic activity of PPR, HL-SAN, Benzonase nucleases in buffers of varied salt concentration and pH. On the procedure: FIG. 6—showing the comparison of nucleolytic activity values of PPR, HL-SAN and Benzonase® nucleases in buffers of various NaCl concentrations (0, 250, 500 mM), in pH 7.0, 8.0, 9.0, respectively. The remaining reaction conditions are as follows: temperature 22° C., 50 mM Tris, 20 mM MgCk (5 mM MgCk used for Benzonase®). […] The advantage of PPR over the HL-SAN nuclease, whose characteristics are the most similar, increases in correlation with decreasing pH (7.0-8.0).
(§3) In order to determine PPR nuclease specific activity serial dilutions of the enzyme are incubated in a reaction buffer containing 20 mM Tris-HCl (pH 8.0), 20 mM MgCh and 100 pg of herring sperm genomic DNA of 300 m ? volume at 37° C. for 30 min. The reaction is stopped by adding 300 m ? 4% solution of perchloric acid to 2% final concentration and sample incubation on ice for 60 min. As a control, 100 pg DNA is incubated without the addition of nuclease. Afterwards, the samples are centrifuged for 10 minutes until separation of the precipitate of non-degraded DNA. The content of free nucleotides and oligonucleotide fragments smaller than 10 bp is determined in supernatant by measuring absorbance at 260 nm wavelength. 1 U nuclease activity is determined as enzyme quantity causing increase of absorbance in the studied sample at 260 nm wavelength of 1.0 within 30 minutes of reaction at 37° C. […]

For data set [5], the system named is herring sperm genomic DNA. Put plainly: Nucleolytic activity of PPR, HL-SAN, Benzonase nucleases in DMEM medium. On the procedure: FIG. 7—showing the comparison of values of the PPR, HL-SAN and Benzonase® nucleases' nucleolytic activities in DMEM medium, commonly used for mammalian in vitro cell culture, in which recombinant proteins, virus vectors and other biological therapeutics are produced.
as §1
Determination of the nucleolytic activity of PPR, HL-SAN and Benzonase® nucleases are performed as described in Example 4 at various temperatures: 6° C., 22° C. and 37° C. but instead of a reaction buffer DMEM medium (commonly used in cultures of mammalian cells, e.g. CHO, HEK, for the production of recombinant proteins and virus vectors) is used. […] At 37° C. […] The activity for every enzyme in conditions recommended by the manufacturer was assumed as 100% activity.

In data set [6] the test system is herring sperm genomic DNA. Put plainly: Nucleolytic activity of PPR, HL-SAN, Benzonase nucleases in PBS and TBS buffers. Particulars: PBS, TBS and TBS with 500 mM NaCl; 6° C., 22° C. and 37° C. On the procedure: FIG. 8—showing the comparison of values of the PPR, HL-SAN and Benzonase® nucleases' nucleolytic activities in buffers with similar physiological salt concentration (PBS and TBS) with the addition of 500 mM NaCl, commonly used in the methodology of recombinant protein purification.
as §3

B1: PPR nuclease: non-specific nuclease that is the subject matter of the invention of SEQ ID NO: 2; thermolabile, recombinant, produced in E. coli (protein)
chain: MKYLLPTAAAGLLLLAAQPAMAASMEHHHHHHGSENLYFQSAPPSSFSKAKRLAVEIYQDHPTSFYCGCAITWQGKKGLPDLASCGYEVRKQEKRANRIEWEHVVPAENFGRAFVEWREGHPQCVNSKGKAYKGRSCATKMNPTYRSMQADLHNLTPAVGEVNGDRSNYAFLPWNGNNGAFYGQCDMKIDFKNRRADPPEQSRGAIARTYLYMNQEYKMALSSQQRQLMEAWNRQYPISTWECERDRRIANIQDNHNSFVLQACKKAGY
Regarding B1, in data set [1] (500 mM NaCl, tested pH 6.0-10.0 at 0, 250, 500 mM NaCl, 20 mM MgCl2, 22° C., 1 U enzyme), the “pH of highest nucleolytic activity” value turned out to be 8.0. For the same molecule, the “nucleolytic activity over tested temperature range” value in data set [1] (6° C. to 45° C., 50 mM Tris, pH 8.0) is “maintains nucleolytic activity in the whole range of the tested temperatures”. Also, in data set [1] (MgCl2), the “MgCl2 concentration range with high specific activity / enzyme active” value lay in the range of 5 to 200 mM. Further, the “temperature of highest nucleolytic activity” value in data set [1] (NaCl (500 mM) and MgCl2 (100 mM), 50 mM Tris, pH 8.0, tested 6° C. to 45° C.) stood at 37 °C. In addition, the figures for the “Mg2+ concentration of highest nucleolytic activity” value in data set [1] (pH 6.5) and in data set [1] (pH 8.0) were 20 mM and 150 mM, respectively. Besides, the “optimum Mg2+ concentration range for nucleolytic activity” value in data set [1] (pH 6.5 buffer, ambient temperature (22° C.)) was in the range of 20 to 50 mM; in data set [1] (pH 8.0 buffer, 37° C.), 50 to 150 mM. Moreover, in data set [1] (refrigerated conditions at 6° C., NaCl (500 mM) and MgCl2 (100 mM)), the “nucleolytic activity relative to standard activity” value was 100 % of standard activity. Moreover, the Non-inhibiting concentration lay in the range of 0 to 200 mM in data set [2] (Ammonium sulphate), 0 to 400 mM in data set [2] (Imidazole), 0 to 1400 mM in data set [2] (NaCl/KCl) and 0 to 6000 mM in data set [2] (Urea). Besides, in data set [3], the “temperature of irreversible inactivation” value came to 52 °C. Moreover, the “nucleolytic activity compared with the other tested nucleases” value in data set [4] (250 and 500 mM NaCl, pH 7.0, 8.0 and 9.0, 22° C., 50 mM Tris, 20 mM MgCl2) is on record as “highest nucleolytic activity of all tested nucleases”. Further, in data set [4] (lower pH (7.0, 8.0) and ambient temperature (22° C.)), the “nucleolytic activity compared with HL-SAN and Benzonase” value was “significantly more active”. Besides, the “nucleolytic activity relative to Benzonase nuclease” value in data set [5] (37° C.) was “six times more active”. The “nucleolytic activity compared with the other tested enzymes” value in data set [5] (all tested temperatures (6° C., 22° C., 37° C.)) was “highest nucleolytic activity of all tested enzymes”; in data set [6], “highest nucleolytic activity of all tested enzymes”. Moreover, the “nucleolytic activity relative to HL-SAN and Benzonase” value in data set [5] (refrigerated conditions (6° C.) and ambient temperature (22° C.)) is listed as “approx three times more active”.
